{"source": "paper PMC5797668", "molecular_target": "HA-M2R-RLuc8 (M2 muscarinic receptor) (UniProt P08172)", "sequence (P08172 whole entry)": "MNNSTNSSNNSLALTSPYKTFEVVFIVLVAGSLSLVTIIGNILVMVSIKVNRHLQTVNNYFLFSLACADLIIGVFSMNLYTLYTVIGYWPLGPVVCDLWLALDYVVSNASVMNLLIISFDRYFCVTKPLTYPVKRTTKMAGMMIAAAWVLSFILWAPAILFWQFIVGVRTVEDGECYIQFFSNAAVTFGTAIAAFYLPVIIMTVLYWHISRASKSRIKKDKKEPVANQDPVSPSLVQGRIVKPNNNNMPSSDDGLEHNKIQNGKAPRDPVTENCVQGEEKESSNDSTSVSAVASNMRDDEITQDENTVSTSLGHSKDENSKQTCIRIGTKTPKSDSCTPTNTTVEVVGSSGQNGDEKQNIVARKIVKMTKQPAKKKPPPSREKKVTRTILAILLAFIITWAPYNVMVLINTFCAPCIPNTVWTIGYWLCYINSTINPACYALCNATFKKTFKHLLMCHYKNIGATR", "assay": "FRET or BRET"}
{"substance": "Venus-arrestin-3-Lys139Ile (on the Ala87Val base mutant) (natural protein)", "values": [{"measurement": "fold increase of basal net BRET (against the A87V base mutant)", "result": "> 3", "unit": "fold"}]}
